Data on 1 molecule can be found in patent US20190041402A1 (GOVERNING COUNCIL OF THE UNIVERSITY OF TORONTO, published 2019).

For one test, the target named is T1, rat αKlotho (endogenous) (rat, UniProt Q9Z2Y9 35-983).
T1 sequence (looked up): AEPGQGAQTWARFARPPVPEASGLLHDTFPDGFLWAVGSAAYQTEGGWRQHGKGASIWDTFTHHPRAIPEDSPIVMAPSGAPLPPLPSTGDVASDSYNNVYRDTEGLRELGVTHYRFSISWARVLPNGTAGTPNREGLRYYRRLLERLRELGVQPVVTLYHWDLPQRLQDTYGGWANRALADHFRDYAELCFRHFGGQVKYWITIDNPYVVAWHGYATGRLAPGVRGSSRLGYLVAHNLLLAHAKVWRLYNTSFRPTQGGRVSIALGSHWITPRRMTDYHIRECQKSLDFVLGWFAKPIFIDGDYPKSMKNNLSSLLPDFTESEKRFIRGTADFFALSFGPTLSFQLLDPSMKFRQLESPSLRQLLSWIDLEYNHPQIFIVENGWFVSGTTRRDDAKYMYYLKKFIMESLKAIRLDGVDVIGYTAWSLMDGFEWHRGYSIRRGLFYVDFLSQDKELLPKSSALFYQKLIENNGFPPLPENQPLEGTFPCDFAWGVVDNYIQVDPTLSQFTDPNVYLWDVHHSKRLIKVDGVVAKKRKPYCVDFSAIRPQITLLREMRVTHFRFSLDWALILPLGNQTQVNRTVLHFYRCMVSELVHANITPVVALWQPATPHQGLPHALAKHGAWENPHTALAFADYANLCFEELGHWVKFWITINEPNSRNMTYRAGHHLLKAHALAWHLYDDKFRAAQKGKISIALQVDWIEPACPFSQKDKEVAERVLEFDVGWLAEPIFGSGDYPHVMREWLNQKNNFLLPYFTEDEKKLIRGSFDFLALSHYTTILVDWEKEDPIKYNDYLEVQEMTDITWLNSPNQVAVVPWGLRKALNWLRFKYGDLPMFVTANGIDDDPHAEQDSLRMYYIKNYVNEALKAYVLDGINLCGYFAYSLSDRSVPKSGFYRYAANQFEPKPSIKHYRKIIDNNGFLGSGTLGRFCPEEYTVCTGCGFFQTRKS
The experiment in a line: immunoprecipitation-immunoblot, serum and urine; native soluble αKlotho in rat serum; immunoprecipitation-immunoblot. The procedure: The ELISA was performed as instructed by the manufacturer (Immuno-Biological Laboratory, Japan). For the IP-IB assay, typically 50 μl of serum or urine were diluted with KRH buffer [25 mM Hepes-NaOH (pH 7.4), 120 mM NaCl, 5 mM KCl, 1.2 mM MgSO4, 1.3 mM CaCl2, 1.3 mM KH2PO4] to a final volume of 0.5 ml incubated with 2 μg of sb106-Fab overnight at 4° C. in low binding, siliconized tubes. Sepharose beads (50 μL) conjugated with anti-FLAG antibody (50% v/v) prewashed 3× with KRH buffer were added, incubated (4° C.×2 h), and washed (KRH-500 μl per tube ×3; 22° C.). The immune complex was eluted with 2×SDS sample loading buffer (50 μl; 100° C.×3 min; 4° C.×3 min; spun), and fractionated by SDS-PAGE, transferred to nitrocellulose membranes and blotted with anti-KL1 antibody (KM2076, 1:4000 or 3.1 mg/mL, 1:10000 dilution) and diluent (Dako#S3022, Carpinteria, Calif., USA) overnight (4° C., rocker). The membrane was washed (×3, Tris-buffered saline with 0.1% Tween; TBS-T), exposed to anti-rat IgG2A (LSBio cat#LS-059051, 1:20000 in 5% milk/2% goat serum/TBS-T×1 h) and washed (×3 TBS-T). For chemiluminescence, the membrane was covered with SuperSignal West Femto Maximum Sensitivity substrate (Thermo Scientific, Rockford, Ill., USA) and exposed for 30-90 s. The 130-kD bands were scanned, and density was compared with internal control samples of know amount of Klotho using Adobe Photoshop CS4.

Test [1] deals with T2, soluble human αKlotho (recombinant) (human, UniProt Q9UEF7 34-981).
T2 construct: also called Hu aKL; recombinant human αKlotho
T2 sequence (looked up): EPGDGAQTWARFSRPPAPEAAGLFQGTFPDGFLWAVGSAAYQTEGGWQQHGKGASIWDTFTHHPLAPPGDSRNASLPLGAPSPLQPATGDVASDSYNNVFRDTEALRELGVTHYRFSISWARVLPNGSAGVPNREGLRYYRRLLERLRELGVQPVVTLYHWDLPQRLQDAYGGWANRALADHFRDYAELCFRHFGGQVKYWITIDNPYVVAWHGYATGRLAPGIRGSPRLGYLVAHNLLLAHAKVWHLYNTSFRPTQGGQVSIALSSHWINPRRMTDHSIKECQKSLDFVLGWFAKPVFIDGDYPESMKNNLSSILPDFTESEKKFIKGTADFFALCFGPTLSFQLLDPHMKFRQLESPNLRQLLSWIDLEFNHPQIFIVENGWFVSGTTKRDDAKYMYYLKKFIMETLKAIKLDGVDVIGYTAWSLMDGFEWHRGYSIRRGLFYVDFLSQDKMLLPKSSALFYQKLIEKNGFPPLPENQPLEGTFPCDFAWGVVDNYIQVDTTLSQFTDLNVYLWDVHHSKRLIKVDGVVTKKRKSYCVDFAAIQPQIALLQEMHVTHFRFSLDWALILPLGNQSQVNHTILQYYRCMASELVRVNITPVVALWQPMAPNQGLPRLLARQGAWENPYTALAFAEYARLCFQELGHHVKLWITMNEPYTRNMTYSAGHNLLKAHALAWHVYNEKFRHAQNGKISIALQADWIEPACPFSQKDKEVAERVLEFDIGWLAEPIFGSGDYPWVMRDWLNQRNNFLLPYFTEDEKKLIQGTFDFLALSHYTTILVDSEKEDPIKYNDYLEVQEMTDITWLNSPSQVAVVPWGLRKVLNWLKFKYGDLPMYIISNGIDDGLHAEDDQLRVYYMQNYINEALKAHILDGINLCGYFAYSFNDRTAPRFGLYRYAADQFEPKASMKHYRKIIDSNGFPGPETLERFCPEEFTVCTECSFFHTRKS
The experiment in a line: SPR (ProteOn XPR36), Fab captured by anti-IgG(H+L), human αKlotho injected in serial dilutions, Langmuir fit [continued) B.]. The procedure:
Estimated affinities against human and mouse antigen for select αKlotho Fabs were obtained by surface plasmon resonance on a ProteOn XPR36 (FIG. 17). Fabs were captured using an anti-IgG(H+L) antibody and serial dilutions of αKlotho were injected. Binding curves were fitted to the Langmuir model. (A) Determined Kon, Koff and KD values. (B) and (C) Binding curves for human and mouse antigen respectively.

B1: sb106 Fab (Fab, V domains shown)
VH: EVQLVESGGGLVQPGGSLRLSCAASGFNISYYSIHWVRQAPGKGLEWVAYISPSYGYTSYADSVKGRFTISADTSKNTAYLQMNSLRAEDTAVYYCARYYVYASHGWAGYGMDYWGQGTLVTVSS
VL: DIQMTQSPSSLSASVGDRVTITCRASQSVSSAVAWYQQKPGKAPKLLIYSASSLYSGVPSRFSGSRSGTDFTLTISSLQPEDFATYYCQQAGYSPITFGQGTKVEIKR
notes: also called Fsb106; clone 48
On to B1, for which the binding result in the test with rat αKlotho (endogenous) is “binds”. In test [1], the Kd stood at 1.02 nM, the koff stood at 0.000315 s⁻¹ and the kon amounted to 308000 M⁻¹ s⁻¹.
